Measurements from patent publication US20210347873A1 (SHANGHAI PHARMAEXPLORER, published 2021).
Blank lines part the entries; values can stand above or below the molecule they belong to.

Assays:
[1] = molecular target: human BLyS (full length, arginine to histidine at position 132) on CHO-K1 cells (human) (UniProt Q9Y275); test: flow cytometry, CHO-K1 hBLyS cells, antibody 0.534 nM
[2] = molecular target: T1, biotinylated hBLyS-ECD (human, UniProt Q9Y275 134-285, biotinylated with Biotin-X-X-NHS (molar ratio 7:1); sites not stated); test: blocking ELISA: biotinylated hBLyS-ECD on coated BAFF R, antibody 4 nM
T1 construct: also called biotinylated immunogen; BLyS protein
Experimental: (§1) BAFF R (purchased from R & D Systems) was aliquoted into 96-well ELISA plate at 50 ng per well, and the plate was sealed with plastic film and incubated overnight at 4° C. On the next day the plate was washed four times with the plate washing buffer [PBS buffer containing 0.05% (v/v) Tween20] and added with blocking solution [PBS buffer containing 0.05% (v/v) Tween20 and 1% (w/w) BSA], then blocked for 1 hour at room temperature. The blocking solution was removed and 50 μL per well of the lead antibodies prepared in Embodiment 1 and 2 were added followed by the addition of 50 μL per well of the biotinylated hBLyS-ECD prepared in Embodiment 2. After incubation for 1 hour at 37° C., the plate was washed four times with the plate washing buffer [PBS buffer containing 0.05% (v/v) Tween20]. 100 μL per well of HRP-labeled (horseradish peroxidase) avidin (purchased from Sigma) was added and incubated at 37° C. for 1 hour. The plate was then washed four times with the plate washing buffer [PBS buffer containing 0.05% (v/v) Tween20]. 100 μL of TMB substrate was aliquoted into each well and after incubation for 5 minutes at room temperature, then 100 μL of stop solution (1.0 N HCl) was aliquoted into each well. A₄₅₀ₙₘ values were read with an ELISA plate reader (SpectraMax 384plus, Molecular Device) and the results were shown in FIGS. 9A-9B and Table 15. It was shown in Table 15 that the binding of BLyS protein to its receptor BAFF R could be blocked by the BLyS antibody.

[3] = molecular target: T1, biotinylated hBLyS-ECD; test: blocking ELISA: biotinylated hBLyS-ECD on coated BAFF R, antibody 0.8 nM
Experimental: as §1

[4] = molecular target: T1, biotinylated hBLyS-ECD; test: blocking ELISA: biotinylated hBLyS-ECD on coated BAFF R, antibody 0.00128 nM
Experimental: BLyS antibody blocking the binding of the BLyS protein to its receptor BAFF R was detected by the receptor-ligand binding assay of BLyS protein.
as §1

[5] = molecular target: T2, biotinylated hBLyS-ECD (human, UniProt Q9Y275 134-285, biotinylated with Biotin-X-X-NHS (molar ratio 7:1), sites not stated); test: ELISA, biotinylated hBLyS-ECD captured on streptavidin; antibody 13.3 nM
T2 construct: The hBLyS-ECD of Embodiment 1 after biotinylation (Embodiment 2); also called biotinylated immunogen; BLyS protein; not shown: His tag of the pCPC vector
Experimental: (§2) Streptavidin was first diluted to a final concentration of 1.0 μg/mL with PBS, and then 50 μL of diluted streptavidin per well was aliquoted into 96-well ELISA plate, which was subsequently sealed with plastic film and incubated at 4° C. overnight. On the next day the plate was washed four times with the plate washing buffer [PBS buffer containing 0.05% (v/v) Tween20] and added with the blocking solution [PBS buffer containing 0.05% (v/v) Tween20 and 1% (w/w) BSA] and blocked for 2 hours at 37° C. The blocking solution was removed, the biotinylated hBLyS-ECD prepared in Embodiment 2 was diluted with PBS to a final concentration of 50 ng/mL and then aliquoted into the 96-well ELISA plate at 50 μL per well and incubated for 1 hour at 37° C. After rinsing the plate four times with the plate washing buffer [PBS buffer containing 0.05% (v/v) Tween20], 100 μl of the purified lead antibody harvested in Embodiment 1 and 2 was pipetted into each well. After incubation for 1 hour at 37° C., the plate was rinsed four times with the plate washing buffer [PBS buffer containing 0.05% (v/v) Tween20]. HRP-labeled (horseradish peroxidase) secondary antibody (purchased from Sigma) was added in and incubated at 37° C. for 1 hour. The plate was then rinsed four times with the plate washing buffer [PBS buffer containing 0.05% (v/v) Tween20]. 100 μL of TMB substrate was aliquoted into each well and after incubation for 5 minutes at room temperature, 100 μL of stop solution (1.0 N HCl) was aliquoted into each well. A₄₅₀ₙₘ values were read via an ELISA plate reader (SpectraMax M5e purchased from Molecular Devices) and the results were shown in FIGS. 5A-5B and Table 10.

[6] = molecular target: T2, biotinylated hBLyS-ECD; test: ELISA, biotinylated hBLyS-ECD captured on streptavidin; antibody 2.67 nM
Experimental: as §2

[7] = molecular target: T2, biotinylated hBLyS-ECD; test: ELISA, biotinylated hBLyS-ECD captured on streptavidin; antibody 0.534 nM
Experimental: as §2

[8] = molecular target: T2, biotinylated hBLyS-ECD; test: receptor-ligand blocking ELISA: BAFF R coated, biotinylated hBLyS-ECD added with titrated antibody, HRP-avidin; blocked partner: BAFF R
Experimental: as §1

[9] = molecular target: extracellular domain of human BLyS protein (hBLyS-ECD), His-tagged, Ala134-Leu285 (human, UniProt Q9Y275 134-285); test: cell-based or functional assay
[10] = molecular target: T3, biotinylated hBLyS-ECD (human, UniProt Q9Y275 134-285, biotinylated with Biotin-X-X-NHS (molar ratio 7:1); sites not stated); test: ELISA on captured biotinylated hBLyS-ECD; antibody 0.107 nM
T3 construct: also called biotinylated immunogen; biotinylated hBLvS-ECD

[11] = molecular target: T3, biotinylated hBLyS-ECD; test: ELISA on captured biotinylated hBLyS-ECD; antibody 0.00427 nM

Chain of human BLyS (full length, arginine to histidine at position 132) on CHO-K1 cells (human) (Q9Y275 whole entry R130H, the tested form may be a part): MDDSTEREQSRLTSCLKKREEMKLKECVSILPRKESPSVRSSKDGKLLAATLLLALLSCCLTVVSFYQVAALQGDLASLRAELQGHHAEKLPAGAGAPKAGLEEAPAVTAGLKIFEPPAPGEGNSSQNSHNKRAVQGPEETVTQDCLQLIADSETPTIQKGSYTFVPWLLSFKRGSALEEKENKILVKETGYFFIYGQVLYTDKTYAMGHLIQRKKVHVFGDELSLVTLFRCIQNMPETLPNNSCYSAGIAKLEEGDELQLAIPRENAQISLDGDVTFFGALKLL

B1: 111D10D6G3 (antibody, V domains shown)
VH: QVQLQQPGAELVKPGASVKMSCKASGYTFTRHWITWVKQRPGQGLEWIGDIFPGSGSINYNEKFKSEATLTVEKSSSTAYMQLSSLTSEDSAVYYCARGDVDVWGTGTTVTVSS
VL: DIQMTQSPSSLSASLGERVSLTCRASQEIRGYLSWLQQKPNGTIKRLIYAASTLDSGVPKRFSATRSGSDFSLTISSLESEDFADYYCLQYASYPFTFGSGTKLEIK
notes: Mouse hybridoma monoclonal antibody purified on Protein G
OD450 nm [2]: 0.67 OD450 nm
OD450 nm [3]: 0.717 OD450 nm
OD450 nm [4]: 1.27 OD450 nm

B4: 97A3C2H4 (antibody, V domains shown)
VH: EVKLVESGGGLVQPGGSLKLSCAASGFTFSTYTMSWVRQTPEKRLEWVAYISYGGGSTSYPDTVKGRFTISRDNAKNTLYLQMSSLKSEDTAIYYCTRHVTVVENSMDYWGQGTSVTVSS
VL: DILLTQSPDILSVSPGERVSFSCRASQSIGTSIHWYQQRTNGSPRLLIKYVSESFSGTPSRFSGSGSGTAFTLTINSVESEDIADYYCQQTHSWPWTFGGGTKLEIK
notes: as for B1
OD450 nm [2]: 0.208 OD450 nm
OD450 nm [3]: 0.424 OD450 nm
OD450 nm [4]: 1.34 OD450 nm

B6: c97A3C2H4 (antibody, V domains shown)
VH: EVKLVESGGGLVQPGGSLKLSCAASGFTFSTYTMSWVRQTPEKRLEWVAYISYGGGSTSYPDTVKGRFTISRDNAKNTLYLQMSSLKSEDTAIYYCTRHVTVVENSMDYWGQGTSVTVSS
VL: DILLTQSPDILSVSPGERVSFSCRASQSIGTSIHWYQQRTNGSPRLLIKYVSESFSGTPSRFSGSGSGTAFTLTINSVESEDIADYYCQQTHSWPWTFGGGTKLEIK
notes: also called chimeric antibody c97A3C2H4
OD450 nm (as headed), mouse B lymphocyte proliferation; antibody 0 nM [9]: 4440
OD450 nm (as headed), mouse B lymphocyte proliferation; antibody 0.000256 nM [9]: 5020
OD450 nm (as headed), mouse B lymphocyte proliferation; antibody 0.00128 nM [9]: 4870
OD450 nm (as headed), mouse B lymphocyte proliferation; antibody 0.0064 nM [9]: 5280
OD450 nm (as headed), mouse B lymphocyte proliferation; antibody 0.032 nM [9]: 4450
OD450 nm (as headed), mouse B lymphocyte proliferation; antibody 0.16 nM [9]: 3740
OD450 nm (as headed), mouse B lymphocyte proliferation; antibody 0.8 nM [9]: 1460
OD450 nm (as headed), mouse B lymphocyte proliferation; antibody 4 nM [9]: 578
OD450 nm (as headed), mouse B lymphocyte proliferation; antibody 20 nM [9]: 424
OD450 nm (as headed), mouse B lymphocyte proliferation; antibody 100 nM [9]: 444
OD450 nm [10]: 2.35 OD450 nm
OD450 nm [11]: 0.194 OD450 nm

B7: 8E7D9C7F5 (antibody, V domains shown)
VH: QVQLQQSGVELARPGASVKLSCKASGYTFTSYGISWVKQRTGQALEWIGEIYPRSGNTYYNEKFKGKATLTADKSSSTAYMELRSLTSEDSAVYFCARSGPITTLVATDYGMDYWGQGTSVTVSS
VL: DIVLTQSPASLAVSLGQRATISCRASKSVSTSSYSYMHWYQQKPGQPPKLLIKFASNLESGVPARFSGSGSGTDFTLNIHPVEEEDAATYYCQHSREFPYTFGGGTKLEIK
notes: as for B1
OD450 nm [2]: 0.173 OD450 nm
OD450 nm [3]: 0.294 OD450 nm
OD450 nm [4]: 1.62 OD450 nm

B8: c8E7D9C7F5 (antibody, V domains shown)
VH: QVQLQQSGVELARPGASVKLSCKASGYTFTSYGISWVKQRTGQALEWIGEIYPRSGNTYYNEKFKGKATLTADKSSSTAYMELRSLTSEDSAVYFCARSGPITTLVATDYGMDYWGQGTSVTVSS
VL: DIVLTQSPASLAVSLGQRATISCRASKSVSTSSYSYMHWYQQKPGQPPKLLIKFASNLESGVPARFSGSGSGTDFTLNIHPVEEEDAATYYCQHSREFPYTFGGGTKLEIK
notes: also called chimeric antibody c8E7D9C7F5
OD450 nm (as headed), mouse B lymphocyte proliferation; antibody 0 nM [9]: 4750
OD450 nm (as headed), mouse B lymphocyte proliferation; antibody 0.000256 nM [9]: 4970
OD450 nm (as headed), mouse B lymphocyte proliferation; antibody 0.00128 nM [9]: 5150
OD450 nm (as headed), mouse B lymphocyte proliferation; antibody 0.0064 nM [9]: 5280
OD450 nm (as headed), mouse B lymphocyte proliferation; antibody 0.032 nM [9]: 4620
OD450 nm (as headed), mouse B lymphocyte proliferation; antibody 0.16 nM [9]: 4110
OD450 nm (as headed), mouse B lymphocyte proliferation; antibody 0.8 nM [9]: 2070
OD450 nm (as headed), mouse B lymphocyte proliferation; antibody 4 nM [9]: 488
OD450 nm (as headed), mouse B lymphocyte proliferation; antibody 20 nM [9]: 367
OD450 nm (as headed), mouse B lymphocyte proliferation; antibody 100 nM [9]: 345
OD450 nm [10]: 1.7 OD450 nm
OD450 nm [11]: 0.198 OD450 nm

More lines, now with the values ahead:

MFI [1]: 33.4 MFI
Molecule: hIgG Control (antibody)

MFI [1]: 30.7 MFI
Molecule: mIgG Control (antibody)

OD450 nm [5]: 1.78
OD450 nm [6]: 1.78
OD450 nm [7]: 1.41
IC50 (read off the curve) [8]: ~0.1 nM
B2: 111D10D6G3 (antibody, V domains shown)
VH: QVQLQQPGAELVKPGASVKMSCKASGYTFTRHWITWVKQRPGQGLEWIGDIFPGSGSINYNEKFKSEATLTVEKSSSTAYMQLSSLTSEDSAVYYCARGDVDVWGTGTTVTVSS
VL: DIQMTQSPSSLSASLGERVSLTCRASQEIRGYLSWLQQKPNGTIKRLIYAASTLDSGVPKRFSATRSGSDFSLTISSLESEDFADYYCLQYASYPFTFGSGTKLEIK
notes: Mouse hybridoma antibody purified on Protein G

OD450 nm [5]: 1.61
OD450 nm [6]: 1.65
OD450 nm [7]: 1.5
IC50 (read off the curve) [8]: ~1 nM
B3: L1D12 (antibody, human IgG1, V domains shown)
VH: QVQLVQSGGGLVQPGGSLRLSCAASGFTVSSNYMSWVRQAPGKGLEWVSVIYSGGSTYYADSVKGRFTISRDNSKNTLYLQMNSLRAEDTAVYYCARGFHDILTGYGMDVWGQGTTVTVSS
VL: SSELTQDPAVSVALGQTVRITCQGDSLRNYYAGWYQQKPGQAPVLVIYGKNNRPSGIPDRFSGSSSGNTASLTITGTQAEDEADYYCSSRDNSGTHLVEFGGGTKLTVL
notes: also called LID12

OD450 nm [5]: 2.82
OD450 nm [6]: 2.75
OD450 nm [7]: 2.12
IC50 (read off the curve) [8]: ~0.3 nM
B5: 97A3C2H4 (antibody, V domains shown)
VH: EVKLVESGGGLVQPGGSLKLSCAASGFTFSTYTMSWVRQTPEKRLEWVAYISYGGGSTSYPDTVKGRFTISRDNAKNTLYLQMSSLKSEDTAIYYCTRHVTVVENSMDYWGQGTSVTVSS
VL: DILLTQSPDILSVSPGERVSFSCRASQSIGTSIHWYQQRTNGSPRLLIKYVSESFSGTPSRFSGSGSGTAFTLTINSVESEDIADYYCQQTHSWPWTFGGGTKLEIK
notes: as for B2

OD450 nm [5]: 1.6
OD450 nm [6]: 1.71
OD450 nm [7]: 1.35
IC50 (read off the curve) [8]: ~0.7 nM
B9: L9G7 (antibody, human IgG1, V domains shown)
VH: QIQLVQSGAEVKKPGASVKVSCKASGYTFTSYGISWVRQAPGQGLEWMGWISAYNGNTNYAQKLQGRVTMTTDTSTSTAYMELRSLRSDDTAVYYCARTYYDILTGYYYYGMDVWGQGTTVTVSS
VL: EIVLTQSPGTLSLSPGERATLSCRTSQSVDTYLAWYQQKPGQAPRLLIYDASNRATGIPARFSGSGSGTDFTLTISSLEPEDFAVYYCQQRSNWPLTFGGGTKVEIK
